Experimental data reported in paper PMC8307404, “Crystal Structure-Guided Design of Bisubstrate Inhibitors and Photoluminescent Probes for Protein Kinases of the PIM Family” (Molecules, 2021).
Square brackets hold non-standard residues; d marks the D form. Peptide text beside a SMILES is read from it. * marks the point of attachment. X3 = O=C(CCCCCNCc1nc2c(sc3cc(Br)cnc32)c(=O)[nH]1)*

Key:
Experiment in all cases: Kinase profiling (radiometric filter-binding)
Assay type in all cases: biochemical
PKA = PKA (Homo sapiens, UniProt P17612); conditions: 1 µM inhibitor, read-out: Residual activity, %
How it was run: (§1)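 Residual kinase activity, as a percentage of the inhibitor-free control, was measured at 1 µM final compound by radiometric filter binding. Each human enzyme was run with ATP no higher than its own KM.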

GCK = molecular target: T1, GCK (Homo sapiens, UniProt Q12851); conditions: 1 µM inhibitor, read-out: Residual activity, %
T1 sequence (Q12851 1-820): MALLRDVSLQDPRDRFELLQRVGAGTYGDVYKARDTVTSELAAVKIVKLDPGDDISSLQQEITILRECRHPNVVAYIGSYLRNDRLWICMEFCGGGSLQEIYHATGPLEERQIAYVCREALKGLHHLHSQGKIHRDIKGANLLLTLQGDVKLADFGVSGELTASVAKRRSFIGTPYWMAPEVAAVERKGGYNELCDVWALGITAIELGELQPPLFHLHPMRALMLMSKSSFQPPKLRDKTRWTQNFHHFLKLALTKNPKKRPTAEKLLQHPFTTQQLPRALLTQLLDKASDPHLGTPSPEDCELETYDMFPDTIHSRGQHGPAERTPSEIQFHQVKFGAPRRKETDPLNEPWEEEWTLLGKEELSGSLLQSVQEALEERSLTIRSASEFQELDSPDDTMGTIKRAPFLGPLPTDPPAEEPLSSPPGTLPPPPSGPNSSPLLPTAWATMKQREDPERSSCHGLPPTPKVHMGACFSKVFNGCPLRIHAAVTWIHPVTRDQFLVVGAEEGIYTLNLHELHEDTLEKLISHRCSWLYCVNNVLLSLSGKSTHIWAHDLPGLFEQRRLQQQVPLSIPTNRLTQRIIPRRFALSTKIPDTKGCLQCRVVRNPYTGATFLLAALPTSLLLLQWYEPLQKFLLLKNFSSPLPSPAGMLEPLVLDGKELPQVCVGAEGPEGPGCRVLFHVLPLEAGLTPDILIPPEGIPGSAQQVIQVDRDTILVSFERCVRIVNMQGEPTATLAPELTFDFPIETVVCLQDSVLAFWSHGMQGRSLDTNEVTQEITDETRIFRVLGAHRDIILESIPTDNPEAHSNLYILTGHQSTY
How it was run: as §1

MSK1 = MSK1 (Homo sapiens, UniProt O75582); conditions: MSK1, 1 µM inhibitor; read-out: Residual activity, %
How it was run: as §1

EPH-A4 = EPH-A4 (Homo sapiens, UniProt P54764); conditions: EPH-A4, 1 µM inhibitor; read-out: Residual activity, %
How it was run: as §1

DYRK2 = molecular target: T2, DYRK2 (Homo sapiens, UniProt Q92630); conditions: DYRK2, 1 µM inhibitor; read-out: Residual activity, %
T2 sequence (Q92630 1-601): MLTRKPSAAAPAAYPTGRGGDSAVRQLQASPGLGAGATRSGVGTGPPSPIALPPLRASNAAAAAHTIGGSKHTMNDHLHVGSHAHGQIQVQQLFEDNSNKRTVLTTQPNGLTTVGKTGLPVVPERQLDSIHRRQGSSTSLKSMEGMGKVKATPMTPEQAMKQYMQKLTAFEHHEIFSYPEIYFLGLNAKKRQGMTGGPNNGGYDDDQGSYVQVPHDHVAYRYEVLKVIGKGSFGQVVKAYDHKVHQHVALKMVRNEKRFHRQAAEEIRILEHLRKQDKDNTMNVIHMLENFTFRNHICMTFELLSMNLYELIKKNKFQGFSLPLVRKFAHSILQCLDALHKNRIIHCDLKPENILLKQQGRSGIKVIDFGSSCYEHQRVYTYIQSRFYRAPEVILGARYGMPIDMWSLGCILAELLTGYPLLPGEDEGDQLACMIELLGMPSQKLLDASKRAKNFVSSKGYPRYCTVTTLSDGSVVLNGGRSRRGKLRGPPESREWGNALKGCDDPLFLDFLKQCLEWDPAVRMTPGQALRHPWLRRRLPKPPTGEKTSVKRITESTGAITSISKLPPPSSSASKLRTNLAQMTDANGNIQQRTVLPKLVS
How it was run: as §1

SIK3 = SIK3 (Homo sapiens, UniProt Q9Y2K2); conditions: SIK3, 1 µM inhibitor; read-out: Residual activity, %
How it was run: as §1

IGF-1R = IGF-1R (Homo sapiens, UniProt P08069); conditions: 1 µM inhibitor, read-out: Residual activity, %
How it was run: as §1

ZAP70 = molecular target: T3, ZAP70 (Homo sapiens, UniProt P43403); conditions: ZAP70, 1 µM inhibitor; read-out: Residual activity, %
T3 sequence (P43403 1-619): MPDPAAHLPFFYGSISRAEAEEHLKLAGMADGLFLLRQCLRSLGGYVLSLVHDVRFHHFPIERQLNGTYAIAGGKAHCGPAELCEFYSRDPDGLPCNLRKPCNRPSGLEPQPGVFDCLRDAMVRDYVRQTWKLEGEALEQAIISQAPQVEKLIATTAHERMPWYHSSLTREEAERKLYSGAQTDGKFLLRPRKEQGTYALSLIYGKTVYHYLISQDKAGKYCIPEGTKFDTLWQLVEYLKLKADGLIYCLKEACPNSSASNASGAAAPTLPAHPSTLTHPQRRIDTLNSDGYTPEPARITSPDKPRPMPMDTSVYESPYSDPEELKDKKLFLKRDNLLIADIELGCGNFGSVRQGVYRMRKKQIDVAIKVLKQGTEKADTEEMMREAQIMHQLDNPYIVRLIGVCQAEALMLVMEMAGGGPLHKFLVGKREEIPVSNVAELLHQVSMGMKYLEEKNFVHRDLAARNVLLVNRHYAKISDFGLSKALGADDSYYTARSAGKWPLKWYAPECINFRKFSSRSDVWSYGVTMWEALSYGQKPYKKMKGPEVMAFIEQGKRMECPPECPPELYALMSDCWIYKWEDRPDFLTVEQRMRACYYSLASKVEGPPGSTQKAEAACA
How it was run: as §1

CAMKKb = CAMKKb (Homo sapiens, UniProt Q96RR4); conditions: 1 µM inhibitor, read-out: Residual activity, %
How it was run: as §1

STK33 = STK33 (Homo sapiens, UniProt Q9BYT3); conditions: STK33, 1 µM inhibitor; read-out: Residual activity, %
How it was run: as §1

PIM2 = PIM2 (Homo sapiens, UniProt Q9P1W9); conditions: PIM2, 1 µM inhibitor; read-out: Residual activity, %
How it was run: as §1

Chain of PIM2 (Q9P1W9 whole entry): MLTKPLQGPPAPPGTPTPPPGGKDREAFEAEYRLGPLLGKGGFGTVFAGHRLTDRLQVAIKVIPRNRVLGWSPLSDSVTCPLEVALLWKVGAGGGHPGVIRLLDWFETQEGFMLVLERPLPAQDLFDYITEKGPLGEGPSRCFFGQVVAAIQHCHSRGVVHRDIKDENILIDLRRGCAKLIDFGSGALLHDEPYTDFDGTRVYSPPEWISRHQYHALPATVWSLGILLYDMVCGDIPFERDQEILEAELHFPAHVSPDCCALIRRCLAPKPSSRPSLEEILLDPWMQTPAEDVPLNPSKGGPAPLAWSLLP
Chain of STK33 (Q9BYT3 whole entry): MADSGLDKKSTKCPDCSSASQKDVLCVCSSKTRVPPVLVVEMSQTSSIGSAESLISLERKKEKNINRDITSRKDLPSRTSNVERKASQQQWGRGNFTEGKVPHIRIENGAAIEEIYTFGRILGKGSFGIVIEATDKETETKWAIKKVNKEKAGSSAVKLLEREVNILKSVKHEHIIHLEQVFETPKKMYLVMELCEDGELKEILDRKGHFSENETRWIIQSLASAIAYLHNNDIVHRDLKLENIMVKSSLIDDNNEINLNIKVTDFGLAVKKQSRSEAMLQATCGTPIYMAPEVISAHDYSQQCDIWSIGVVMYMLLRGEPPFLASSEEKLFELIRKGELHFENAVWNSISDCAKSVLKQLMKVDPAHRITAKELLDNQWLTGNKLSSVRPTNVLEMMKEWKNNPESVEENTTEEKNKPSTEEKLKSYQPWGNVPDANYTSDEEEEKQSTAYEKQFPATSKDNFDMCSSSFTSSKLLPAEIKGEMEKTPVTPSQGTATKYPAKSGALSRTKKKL
Chain of EPH-A4 (P54764 20-986): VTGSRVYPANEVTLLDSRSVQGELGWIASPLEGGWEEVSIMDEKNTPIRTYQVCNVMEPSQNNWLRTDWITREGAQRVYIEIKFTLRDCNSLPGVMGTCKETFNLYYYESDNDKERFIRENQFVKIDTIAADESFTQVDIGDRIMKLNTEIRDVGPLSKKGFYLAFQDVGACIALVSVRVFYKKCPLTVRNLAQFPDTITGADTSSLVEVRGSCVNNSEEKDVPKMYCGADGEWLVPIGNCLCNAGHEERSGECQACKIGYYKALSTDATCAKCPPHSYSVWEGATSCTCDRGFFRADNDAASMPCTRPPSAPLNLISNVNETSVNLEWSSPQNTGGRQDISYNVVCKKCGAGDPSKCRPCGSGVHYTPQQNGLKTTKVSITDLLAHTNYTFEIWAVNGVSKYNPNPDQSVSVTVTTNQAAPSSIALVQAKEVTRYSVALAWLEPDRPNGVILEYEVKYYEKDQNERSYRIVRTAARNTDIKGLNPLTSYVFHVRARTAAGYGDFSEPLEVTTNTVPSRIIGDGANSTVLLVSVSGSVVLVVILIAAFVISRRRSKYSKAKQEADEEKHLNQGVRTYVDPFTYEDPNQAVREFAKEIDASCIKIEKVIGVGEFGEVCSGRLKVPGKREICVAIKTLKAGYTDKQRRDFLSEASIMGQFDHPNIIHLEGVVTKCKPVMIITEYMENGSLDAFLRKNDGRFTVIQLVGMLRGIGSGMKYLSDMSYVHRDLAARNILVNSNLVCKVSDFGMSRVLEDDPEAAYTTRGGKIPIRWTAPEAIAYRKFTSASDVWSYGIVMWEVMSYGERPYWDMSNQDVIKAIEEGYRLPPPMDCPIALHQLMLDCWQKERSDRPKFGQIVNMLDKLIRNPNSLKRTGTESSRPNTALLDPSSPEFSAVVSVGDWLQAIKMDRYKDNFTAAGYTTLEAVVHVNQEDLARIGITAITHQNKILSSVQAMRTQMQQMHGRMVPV
Chain of MSK1 (O75582 whole entry): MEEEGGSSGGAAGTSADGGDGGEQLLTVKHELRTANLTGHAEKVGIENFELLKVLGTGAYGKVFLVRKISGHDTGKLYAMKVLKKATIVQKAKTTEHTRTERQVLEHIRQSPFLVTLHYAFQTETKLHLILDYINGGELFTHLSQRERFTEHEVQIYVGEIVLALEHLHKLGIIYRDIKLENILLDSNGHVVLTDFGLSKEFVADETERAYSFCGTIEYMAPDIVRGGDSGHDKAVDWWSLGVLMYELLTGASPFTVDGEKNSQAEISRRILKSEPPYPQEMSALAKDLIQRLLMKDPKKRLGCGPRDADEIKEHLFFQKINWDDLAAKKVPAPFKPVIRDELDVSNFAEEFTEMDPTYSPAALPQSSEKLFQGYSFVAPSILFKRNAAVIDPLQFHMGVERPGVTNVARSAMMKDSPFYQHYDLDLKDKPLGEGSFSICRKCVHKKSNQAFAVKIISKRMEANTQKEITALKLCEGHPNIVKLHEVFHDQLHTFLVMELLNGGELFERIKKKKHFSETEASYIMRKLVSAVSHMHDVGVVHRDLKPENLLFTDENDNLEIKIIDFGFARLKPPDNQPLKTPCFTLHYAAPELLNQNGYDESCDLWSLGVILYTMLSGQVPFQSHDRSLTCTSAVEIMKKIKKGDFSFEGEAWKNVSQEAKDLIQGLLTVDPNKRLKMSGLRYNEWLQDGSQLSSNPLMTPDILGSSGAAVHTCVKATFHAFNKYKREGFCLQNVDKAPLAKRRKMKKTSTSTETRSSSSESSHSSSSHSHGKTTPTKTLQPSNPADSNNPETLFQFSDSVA
Chain of IGF-1R (P08069 31-1367): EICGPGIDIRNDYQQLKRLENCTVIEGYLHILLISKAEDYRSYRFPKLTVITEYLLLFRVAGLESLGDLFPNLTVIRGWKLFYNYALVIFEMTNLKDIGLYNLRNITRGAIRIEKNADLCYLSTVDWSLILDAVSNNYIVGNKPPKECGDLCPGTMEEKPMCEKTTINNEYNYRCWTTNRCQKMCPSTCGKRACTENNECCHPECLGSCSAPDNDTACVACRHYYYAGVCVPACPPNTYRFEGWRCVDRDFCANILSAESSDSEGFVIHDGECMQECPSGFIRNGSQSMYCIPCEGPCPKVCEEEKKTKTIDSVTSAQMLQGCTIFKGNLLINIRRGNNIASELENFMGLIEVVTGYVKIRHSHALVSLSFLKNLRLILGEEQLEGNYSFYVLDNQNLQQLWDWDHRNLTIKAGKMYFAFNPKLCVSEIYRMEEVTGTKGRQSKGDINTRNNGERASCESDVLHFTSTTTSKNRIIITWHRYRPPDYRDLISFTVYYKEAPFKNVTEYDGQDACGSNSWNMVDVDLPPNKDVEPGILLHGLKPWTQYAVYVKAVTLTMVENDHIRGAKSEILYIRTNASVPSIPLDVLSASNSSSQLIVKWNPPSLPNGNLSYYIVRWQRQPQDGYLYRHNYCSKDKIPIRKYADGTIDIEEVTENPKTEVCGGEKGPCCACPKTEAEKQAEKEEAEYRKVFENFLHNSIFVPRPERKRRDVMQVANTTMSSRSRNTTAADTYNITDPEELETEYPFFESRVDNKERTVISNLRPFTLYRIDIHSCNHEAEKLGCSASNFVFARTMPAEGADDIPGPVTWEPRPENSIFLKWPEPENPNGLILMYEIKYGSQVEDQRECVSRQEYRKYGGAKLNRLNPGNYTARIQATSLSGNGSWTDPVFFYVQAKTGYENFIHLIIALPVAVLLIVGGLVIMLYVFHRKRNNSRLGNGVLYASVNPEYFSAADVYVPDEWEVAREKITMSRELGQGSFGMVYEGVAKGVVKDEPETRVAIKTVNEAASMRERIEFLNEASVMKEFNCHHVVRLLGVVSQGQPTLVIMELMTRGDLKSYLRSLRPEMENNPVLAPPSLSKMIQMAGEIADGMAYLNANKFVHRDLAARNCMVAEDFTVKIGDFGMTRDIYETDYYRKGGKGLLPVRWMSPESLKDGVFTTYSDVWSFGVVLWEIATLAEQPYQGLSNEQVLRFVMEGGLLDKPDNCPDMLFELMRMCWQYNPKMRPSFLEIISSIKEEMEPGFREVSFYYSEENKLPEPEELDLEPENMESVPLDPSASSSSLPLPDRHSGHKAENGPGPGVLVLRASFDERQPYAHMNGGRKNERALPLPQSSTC
Chain of CAMKKb (Q96RR4 whole entry): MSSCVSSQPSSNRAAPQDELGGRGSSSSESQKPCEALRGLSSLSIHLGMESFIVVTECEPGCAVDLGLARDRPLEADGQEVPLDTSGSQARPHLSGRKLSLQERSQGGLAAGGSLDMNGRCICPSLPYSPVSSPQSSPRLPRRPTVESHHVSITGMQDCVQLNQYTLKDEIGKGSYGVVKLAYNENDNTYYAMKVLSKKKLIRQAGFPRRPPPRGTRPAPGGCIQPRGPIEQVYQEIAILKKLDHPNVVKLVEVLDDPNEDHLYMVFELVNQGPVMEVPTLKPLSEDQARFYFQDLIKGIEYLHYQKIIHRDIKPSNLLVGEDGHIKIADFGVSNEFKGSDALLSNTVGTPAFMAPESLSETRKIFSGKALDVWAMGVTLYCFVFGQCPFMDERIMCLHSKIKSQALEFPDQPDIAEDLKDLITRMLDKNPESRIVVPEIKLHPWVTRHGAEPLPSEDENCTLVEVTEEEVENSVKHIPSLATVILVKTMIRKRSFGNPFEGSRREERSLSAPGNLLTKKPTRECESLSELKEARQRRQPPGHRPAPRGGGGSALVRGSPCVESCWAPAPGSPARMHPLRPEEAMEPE

Row | SMILES | remaining activity at 1 µM (PKA) [%] | remaining activity at 1 µM (GCK) [%] | remaining activity at 1 µM (MSK1) [%] | remaining activity at 1 µM (EPH-A4) [%] | remaining activity at 1 µM (DYRK2) [%] | remaining activity at 1 µM (SIK3) [%] | remaining activity at 1 µM (IGF-1R) [%] | remaining activity at 1 µM (ZAP70) [%] | remaining activity at 1 µM (CAMKKb) [%] | remaining activity at 1 µM (STK33) [%] | remaining activity at 1 µM (PIM2) [%]
1 | N=C(N)NCCC[C@@H](NC(=O)CNC(=O)[C@@H](CCCNC(=N)N)NC(=O)[C@@H](CCCNC(=N)N)NC(=O)Cn1cc(CNCc2nc3c(sc4ccc(Br)cc43)c(=O)[nH]2)nn1)C(=O)N[C@H](CCCCN)C(N)=O [Compound 3, BBTP-Amt-(D-Arg)2-Gly-D-Arg-D-Lys-NH2] | 82 ± 10 | 97 ± 7 | 90 ± 2 | 95 ± 5 | 83 ± 22 | 66 ± 6 | 58 ± 7 | 53 ± 14 | 85 ± 4 | 91 | 15 ± 1
2 | N=C(N)NCCC[C@@H](NC(=O)CCCCCNCc1nc2c(sc3cc(Br)cnc32)c(=O)[nH]1)C(=O)N[C@H](CCCNC(=N)N)C(=O)N[C@H](CCCNC(=N)N)C(=O)N[C@H](CCCNC(=N)N)C(=O)N[C@H](CCCNC(=N)N)C(=O)N[C@H](CCCNC(=N)N)C(=O)N[C@H](CCCCN)C(N)=O [ARC-3126, BPTP-Ahx-(D-Arg)6-D-Lys-NH2] (X3-[dR][dR][dR][dR][dR][dR][dK]-NH2) | 97 | 88 ± 14 | 29 ± 1 | 107 ± 13 | 88 ± 6 | 117 ± 15 | 114 ± 24 | 83 ± 30 | 104 ± 13 | 107 ± 6 | 10
3 | N=C(N)NCCC[C@@H](NC(=O)CCCCCNC(=O)Cn1cnc2c(I)c(I)c(I)c(I)c21)C(=O)N[C@H](CCCNC(=N)N)C(=O)N[C@H](CCCNC(=N)N)C(=O)N[C@H](CCCNC(=N)N)C(=O)N[C@H](CCCNC(=N)N)C(=O)N[C@H](CCCNC(=N)N)C(=O)N[C@H](CCCCN)C(N)=O [ARC-3125, TIBI-CH2-C(=O)-Ahx-(D-Arg)6-D-Lys-NH2] | 7 ± 3 | 56 ± 4 | 6 ± 8 | 97 ± 4 | 54 ± 6 | 89 ± 7 | – | 105 ± 8 | 47 ± 1 | 84 ± 20 | 0
4 | N=C(N)NCCC[C@@H](NC(=O)CNC(=O)[C@@H](CCCNC(=N)N)NC(=O)[C@@H](CCCNC(=N)N)NC(=O)CCCCCCCNCc1nc2c(sc3cc(Br)cnc32)c(=O)[nH]1)C(=O)N[C@H](CCCCN)C(N)=O [Compound 1, BPTP-Aoc-(D-Arg)2-Gly-D-Arg-D-Lys-NH2] | 100 ± 9 | 112 | 106 ± 13 | 97 ± 2 | 85 ± 17 | 106 ± 2 | 77 ± 8 | 95 ± 21 | 117 ± 1 | 110 ± 2 | 72
5 | N=C(N)NCCC[C@@H](NC(=O)CNC(=O)[C@@H](CCCNC(=N)N)NC(=O)[C@@H](CCCNC(=N)N)NC(=O)CCCCCCCNCc1nc2c(sc3ccc(Br)cc32)c(=O)[nH]1)C(=O)N[C@H](CCCCN)C(N)=O [Compound 2, BBTP-Aoc-(D-Arg)2-Gly-D-Arg-D-Lys-NH2] | 85 ± 6 | 114 ± 2 | 53 ± 4 | 103 ± 16 | 64 ± 5 | 97 ± 9 | 91 ± 6 | 87 ± 7 | 108 ± 1 | 106 ± 3 | 7 ± 1
